Substrate in the data set: CCCCCCCCCCc1c(C)c(O)c(OC)c(OC)c1O
Nature of the data set: steady-state cytochrome c reduction, spectroscopic, Michaelis-Menten fit. The note with it: 20 μM bovine heart cytochrome c, 50 mM Tris pH 8.0, 0.01% DDM, 100 mM NaCl, DBH2 0.5-20 μM, Qo site, turnover given as Vmax. The format is biochemical, Rhodobacter capsulatus.

B1: cytochrome bc1 (R. capsulatus bc1 complex) (Rhodobacter capsulatus) (protein)
chain 1: MSGIPHDHYEPKTGIEKWLHDRLPIVGLVYDTIMIPTPKNLNWWWIWGIVLAFTLVLQIVTGIVLAIDYTPHVDLAFASVEHIMRDVNGGWAMRYIHANGASLFFLAVYIHIFRGLYYGSYKAPREITWIVGMVIYLLMMGTAFMGYVLPWGQMSFWGATVITGLFGAIPGIGPSIQAWLLGGPAVDNATLNRFFSLHYLLPFVIAALVAIHIWAFHTTGNNNPTGVEVRRTSKADAEKDTLPFWPYFVIKDLFALALVLLGFFAVVAYMPNYLGHPDNYIQANPLSTPAHIVPEWYFLPFYAILRAFAADVWVVILVDGLTFGIVDAKFFGVIAMFGAIAVMALAPWLDTSKVRSGAYRPKFRMWFWFLVLDFVVLTWVGAMPTEYPYDWISLIASTYWFAYFLVILPLLGATEKPEPIPASIEEDFNSHYGNPAE
chain 2: MSHAEDNAGTRRDFLYHATAATGVVVTGAAVWPLINQMNASADVKAMSSIFVDVSAVEVGTQLTVKWRGKPVFIRRRDEKDIELARSVPLGALRDTSAENANKPGAEATDENRSLAAFDGTNTGEWLVMLGVCTHLGCVPMGDKSGDFGGWFCPCHGSHYDSAGRIRKGPAPRNLDIPVAAFVDETTIKLG
notes: petABC operon from plasmid pPET1, C-terminal Strep-tag on cytochrome b, expressed in R. capsulatus MT-RBC1 (host), DDM-solubilised from chromatophores, Strep-tag purified; homodimer of 3 catalytic subunits; with Cytochrome c1
For the protein B1, the Michaelis-Menten constant (Km) stood at 2.3 ± 0.5 µM and the turnover number (kcat) is 146 ± 9 s⁻¹.

B2: cytochrome bc1 (R. capsulatus bc1 complex) (Rhodobacter capsulatus; P0CY47:G332D) (protein)
chain 1: MSGIPHDHYEPKTGIEKWLHDRLPIVGLVYDTIMIPTPKNLNWWWIWGIVLAFTLVLQIVTGIVLAIDYTPHVDLAFASVEHIMRDVNGGWAMRYIHANGASLFFLAVYIHIFRGLYYGSYKAPREITWIVGMVIYLLMMGTAFMGYVLPWGQMSFWGATVITGLFGAIPGIGPSIQAWLLGGPAVDNATLNRFFSLHYLLPFVIAALVAIHIWAFHTTGNNNPTGVEVRRTSKADAEKDTLPFWPYFVIKDLFALALVLLGFFAVVAYMPNYLGHPDNYIQANPLSTPAHIVPEWYFLPFYAILRAFAADVWVVILVDGLTFGIVDAKFFDVIAMFGAIAVMALAPWLDTSKVRSGAYRPKFRMWFWFLVLDFVVLTWVGAMPTEYPYDWISLIASTYWFAYFLVILPLLGATEKPEPIPASIEEDFNSHYGNPAE
chain 2: MSHAEDNAGTRRDFLYHATAATGVVVTGAAVWPLINQMNASADVKAMSSIFVDVSAVEVGTQLTVKWRGKPVFIRRRDEKDIELARSVPLGALRDTSAENANKPGAEATDENRSLAAFDGTNTGEWLVMLGVCTHLGCVPMGDKSGDFGGWFCPCHGSHYDSAGRIRKGPAPRNLDIPVAAFVDETTIKLG
notes: as for B1
Regarding B2, the Michaelis constant (Km) was determined as 1.1 ± 0.2 µM and the kcat stood at 45 ± 2 s⁻¹.

A word on the Km: it is the concentration of substrate that gives half-maximal velocity. Broadly, the kcat is the maximal rate divided by the concentration of active sites.

(Values after publication PMC4906154, “Mitochondrial disease-related mutations at the cytochrome b-iron–sulfur protein (ISP) interface: Molecular effects on the large-scale motion of ISP and superoxide generation studied in Rhodobacter capsulatus cytochrome bc1^” (Biochimica et Biophysica Acta, 2016).)
